Series [1] concerns the target N-terminally 3xFLAG-tagged G64D mutant ZIP13 (human). The series is described as follows: native gel or EMSA; blue native-PAGE of lysates of 293T cells expressing F-WT or F-G64D. (In general: A gel shift assay detects complexes by their altered migration in electrophoresis.)
Series [2] deals with the molecule itself. Described as above.

These results are taken from article PMC4154131, “Molecular pathogenesis of Spondylocheirodysplastic Ehlers-Danlos syndrome caused by mutant ZIP13 proteins” (EMBO Molecular Medicine, 2014).

For “N-terminally 3xFLAG-tagged G64D mutant ZIP13 (natural protein)”, the stoichiometry N in series [1] amounted to 2.

B1: N-terminally 3xFLAG-tagged wild-type ZIP13 (natural protein, human, UniProt Q96H72 1-371, looked up)
chain: MPGCPCPGCGMAGPRLLFLTALALELLERAGGSQPALRSRGTATACRLDNKESESWGALLSGERLDTWICSLLGSLMVGLSGVFPLLVIPLEMGTMLRSEAGAWRLKQLLSFALGGLLGNVFLHLLPEAWAYTCSASPGGEGQSLQQQQQLGLWVIAGILTFLALEKMFLDSKEEGTSQAPNKDPTAAAAALNGGHCLAQPAAEPGLGAVVRSIKVSGYLNLLANTIDNFTHGLAVAASFLVSKKIGLLTTMAILLHEIPHEVGDFAILLRAGFDRWSAAKLQLSTALGGLLGAGFAICTQSPKGVVGCSPAAEETAAWVLPFTSGGFLYIALVNVLPDLLEEEDPWRSLQQLLLLCAGIVVMVLFSLFVD
notes: ZIP13 (SLC39A13) zinc transporter, human, wild type; construct as previously described (Fukada et al, 2008); The 3xFLAG precedes the signal peptide; also called F-WT; F-ZIP13; source: 293T, transfected, in lysate; not shown: 3xFLAG, N-terminal, kept
B1: the “stoichiometry N” value in series [2] turned out to be 2.

As a reminder, the stoichiometry N is the number of molecules, sites or subunits per partner or assembly.
